From patent US20060115837A1 (WASHINGTON UNIVERSITY, published 2006)

Columns and labels:
[1] = target: West Nile Virus envelope protein on WNV virions (West Nile Virus) (UniProt Q9Q6P4); assay: cell-based or functional assay
[2] = target: T1, West Nile Virus envelope protein on WNV virions (West Nile Virus, UniProt Q9Q6P4 291-791); assay: cell-based or functional assay
T1 sequence: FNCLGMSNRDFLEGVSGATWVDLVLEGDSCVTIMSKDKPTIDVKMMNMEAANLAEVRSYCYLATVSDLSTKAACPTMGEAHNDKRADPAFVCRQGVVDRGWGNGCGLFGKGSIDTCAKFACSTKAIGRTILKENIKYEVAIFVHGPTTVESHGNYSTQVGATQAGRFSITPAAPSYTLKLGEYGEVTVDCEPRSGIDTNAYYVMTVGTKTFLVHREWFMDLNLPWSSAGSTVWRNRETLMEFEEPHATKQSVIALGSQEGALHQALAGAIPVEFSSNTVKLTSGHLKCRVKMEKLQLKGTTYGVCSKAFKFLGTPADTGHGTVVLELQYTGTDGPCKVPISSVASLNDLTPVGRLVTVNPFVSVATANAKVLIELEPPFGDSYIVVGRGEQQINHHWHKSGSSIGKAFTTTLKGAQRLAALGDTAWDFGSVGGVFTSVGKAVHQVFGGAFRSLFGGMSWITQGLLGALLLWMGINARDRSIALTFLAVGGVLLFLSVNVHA

monoclonal antibody E60
blockade of cellular attachment of WNV to Vero cells (cell-associated viral RNA by fluorogenic RT-PCR), fold reduction [1]: 8 to 9 fold

B1: monoclonal antibody E16 (antibody, V domains shown)
VH: QVQLQQSGSELMKPGASVQISCKATGYTFSDYWIEWVKQRPGHGLEWIGILCGTGRTRYNEKLKAMATFTADTSSNTAFMQLSSLTSEDSAVYYCARSASYGDYADYWGHGTTLTVSS
VL: DIVMTQSHKFMSTSVGDRVSITCKASQDVSTAVAWYQQKPGQSPKLLISWASTRHTGVPDRFTGSGSGTDYTLTISSVQAEDLALYYCQQHYTTPLTFGAGTKLELK
blockade of cellular attachment of WNV to Vero cells (cell-associated viral RNA by fluorogenic RT-PCR), fold reduction [2]: 3.5 fold
